Laboratory results taken from US6355611B1, “Salt form of a conjugate useful in the treatment of prostate cancer” (Merck & Co., Inc., priority 1999, dated 2002).
Values after ≈ are worked out from the molar mass of the structure shown. Where two headings read alike, the source gives them in different places. Starred links: 1 amine or outer side, 2 acyl side, 3 side chain; linkers in the order of their positions; H or OH if unused. Non-standard residues stand in square brackets, D forms with d. Residues, ends and D or L forms follow the SMILES beside them. ξ: configuration not given here. *: point of attachment. X1 = COc1cccc2c1C(=O)c1c(O)c3c(c(O)c1C2=O)C[C@@](O)(C(=O)CO)C[C@@H]3OC1CC(N*)C(O)C(C)O1; X2 = COc1cccc2c1C(=O)c1c(O)c3c(c(O)c1C2=O)CC(O)(C(=O)CO)CC3OC1CC(N*)C(O)C(C)O1; Glutaryl = O=C(CCCC(=O)[*:2])[*:1]; Hyp = O=C(O)[C@@H]1C[C@@H](O)CN1; Chg = N[C@H](C(=O)O)C1CCCCC1; ξChg = NC(C(=O)O)C1CCCCC1; ξHyp = O=C(O)C1CC(O)CN1; ξS = NC(CO)C(=O)O; ξA = CC(N)C(=O)O

Tests used:
Type in all cases: physicochemical
[1] = Thermal / storage stability; conditions: sodium salt compared with free acid
Description: (§1) An aqueous solution of the sodium salt of the instant invention has a pH of greater than 5.0. It has been discovered that the bond between the sugar moiety of doxorubicin and the tetracyclic doxorubicinone moiety is more readily cleaved at aqueous pH of less than 4.0. Therefore the sodium salt offers clear formulation advantages over the free acid, which has an unbuffered aqueous pH of less than 4.0.
In particular, the lyophilized formulation is prepared by the addition of a salt of a carboxylic acid to an aqueous solution of the previously described free acid compound 4. The amount of carboxylate salt that is added to the prelyophilization solution of the compound of formula 4 is from about 3 molar equivalents of base of trisodium citrate per mole of compound 4 to about 9 molar equivalents of base per mole of compound 4. Preferably, the amount of salt that is added is about 5 molar equivalents of base per mole of compound 4.

[2] = Aggregate formation on dissolution in water (filtration through 0.22μ filter)
Excerpt: (§2) It has further been discovered that the sodium salt of the Formula 5 offers advantages with respect to dissolution in water.

pH of aqueous solution = conditions: unbuffered aqueous solution
Excerpt: as §1

[3] = Solubility in water at room temperature
Excerpt: as §2
It has further been discovered that the lyophilized formulation offers advantages with respect to dissolution in water.

| SMILES | thermal stability [1] | formation of aggregates on dissolution in water [2] | pH of aqueous solution (pH of aqueous solution) | solubility ([3]; room temperature, water, read-out: solubility) [mg/mL] | solubility [3] | solubility ([3]; pH 2.35) [mg/mL] | solubility ([3]; pH 5.72, water) [mg/mL] |
| --- | --- | --- | --- | --- | --- | --- | --- |
| COc1cccc2c1C(=O)c1c(O)c3c(c(O)c1C2=O)CC(O)(C(=O)CO)CC3OC1CC(NC(=O)[C@H](CC(C)C)NC(=O)C(CO)NC(=O)[C@H](CCC(N)=O)NC(=O)C(NC(=O)C(CO)NC(=O)C(C)NC(=O)C2CC(O)CN2C(=O)CCCC(=O)[O-])C2CCCCC2)C(O)C(C)O1.[Na+] (stereo partly drawn) [Compound 5, [N-Glutaryl-(4-trans-L-Hyp)]-Ala-Ser-Chg-Gln-Ser-Leu-Dox Sodium salt] (Glutaryl-[ξHyp][ξA][ξS][ξChg]Q[ξS]L-X2) | more thermally stable than the corresponding free acid compound | dissolves in water without forming aggregates | greater than 5.0 | > 277 | – | – | – |
| COc1cccc2c1C(=O)c1c(O)c3c(c(O)c1C2=O)C[C@@](O)(C(=O)CO)C[C@@H]3OC1CC(NC(=O)[C@H](CC(C)C)NC(=O)[C@H](CO)NC(=O)[C@H](CCC(N)=O)NC(=O)[C@@H](NC(=O)[C@H](CO)NC(=O)[C@H](C)NC(=O)[C@@H]2C[C@@H](O)CN2C(=O)CCCC(=O)O)C2CCCCC2)C(O)C(C)O1 (stereo partly drawn) [Compound 4, [N-Glutaryl-(4-trans-L-Hyp)]-Ala-Ser-Chg-Gln-Ser-Leu-Dox] (Glutaryl-[Hyp]AS[Chg]QSL-X1) | – | – | – | – | 13.8 mg/mL of water | 3.98 (≈ 2850 µM) | > 156 |
